This note sets out measurements from PMC4228395, “Detrimental effect of the 6 His C-terminal tag on YedY enzymatic activity and influence of the TAT signal sequence on YedY synthesis” (BMC Biochemistry, 2013).

What all share (assay): purified protein
Holding throughout (format): biochemical, Cereibacter sphaeroides
Conditions in all cases: 0.2 mM dithionite-reduced benzyl viologen as electron donor, 100 mM MES pH 6.0, anaerobic

Data set [1] has as its system T1, C[S+](C)[O-].
T1 construct: mature enzyme expressed without TAT signal peptide; N-terminal 6His-TEV site kept; plasmid pSM181 in R. sphaeroides dmsA- strain

Data set [2] has as its system T2, C[S+](C)[O-].
T2 construct: mature periplasmic enzyme, TAT signal peptide cleaved; N-terminal 6His-TEV site (ENLYFQ) kept; plasmid pSM196 in R. sphaeroides dmsA- strain; monomer; molybdenum cofactor

The test system of data set [3] is T3, C[S+](C)[O-].
T3 construct: mature enzyme, TAT signal peptide cleaved; N-terminal 6His tag cut off by TEV protease, GHM left at N-terminus; pSM196 in R. sphaeroides dmsA- strain; monomer

A word on the Km: it is the substrate concentration at which the rate is half of its maximum. Take “YedY, N-ter tag (-SS) (Cereibacter sphaeroides f. sp. denitrificans)”: the Km in the data set on C[S+](C)[O-] [1] was determined as 43 ± 6 mM.

Regarding “YedY, N-ter tag (+SS) (Cereibacter sphaeroides f. sp. denitrificans)”, in the data set with C[S+](C)[O-] [2], the Km was 71 mM.

As for “YedY, No tag (+SS) (Cereibacter sphaeroides f. sp. denitrificans)”, the Km in the data set with C[S+](C)[O-] [3] is 61 ± 7 mM.
